In patent US20220195455A1, “DELIVERY OF CRISPR/MCAS9 THROUGH EXTRACELLULAR VESICLES FOR GENOME EDITING” (University of Georgia Research Foundation, Inc., priority 2019, published 2022):

What was measured:
Experiment in all cases: NMT1 activity assay (CoA release, fluorescence);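 also: released CoA from NMT1-catalysed myristoylation of octapeptide substrates detected by fluorescence after reaction with a maleimide coumarin dye (excitation 390 nm, emission 479 nm), triplicate points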
Format in all cases: biochemical
Settings in all cases: other: octapeptide as NMT1 substrate; full length NMT1
[1] = substrate: CC(C)C[C@H](NC(=O)CN)C(=O)N[C@@H](CC(C)C)C(=O)N[C@@H](CC(=O)O)C(=O)N[C@@H](CCCNC(=N)N)C(=O)N[C@@H](CC(C)C)C(=O)N[C@@H](CO)C(=O)N[C@H](C(=O)O)C(C)C
Description: (§1) The amount of the released CoA were reacted with 7-diethylamino-3-(4′-maleimidylphenyl)-4-methylcoumarin. The assay was performed in 96-well black microplates. The produced fluorescence intensity was measured by Flex Station 3, and detected by microplate reader (excitation at 390 nm; emission at 479 nm).
(§2) The amount of the released CoA were reacted with 7-diethylamino-3-(4′-maleimidylphenyl)-4-methylcoumarin. The assay was performed in 96-well black microplates. The produced fluorescence intensity was measured by Flex Station 3, and detected by microplate reader (excitation at 390 nm; emission at 479 nm). To measure the Km and Vmax of NMT1 which catalyzed various octapeptides substrates derived from various proteins, twenty-five octapeptides were synthesized by GenScript. […] Each data point has three repeats.
(§3) Km and Vmax catalyzed by full length NMT1 protein were calculated.

[2] = substrate: CC(C)C[C@H](NC(=O)CNC(=O)CN)C(=O)N[C@@H](Cc1ccccc1)C(=O)N[C@@H](CO)C(=O)N[C@@H](CCCNC(=N)N)C(=O)N[C@@H](Cc1c[nH]c2ccccc12)C(=O)N[C@@H](CCCNC(=N)N)C(=O)O
Description: as §1, §2, §3

[3] = substrate: CC(C)C[C@H](NC(=O)[C@H](C)NC(=O)[C@H](CO)NC(=O)[C@H](CC(N)=O)NC(=O)[C@H](CCC(=O)O)NC(=O)[C@H](CO)NC(=O)CN)C(=O)N[C@@H](CCCCN)C(=O)O
Description: as §1, §2, §3

[4] = substrate: CC(C)C[C@H](NC(=O)[C@H](CCC(N)=O)NC(=O)[C@H](CCC(N)=O)NC(=O)[C@H](CO)NC(=O)[C@H](C)NC(=O)[C@H](CCCCN)NC(=O)[C@H](CCC(N)=O)NC(=O)CN)C(=O)O
Description: as §1, §2, §3

[5] = substrate: CC(C)C[C@H](NC(=O)[C@H](CS)NC(=O)[C@H](CC(N)=O)NC(=O)CN)C(=O)N[C@@H](CCCCN)C(=O)N[C@@H](CO)C(=O)N1CCC[C@H]1C(=O)N[C@H](C(=O)O)[C@@H](C)O
Description: as §1, §2, §3

[6] = substrate: CC(C)C[C@H](NC(=O)[C@H](Cc1c[nH]cn1)NC(=O)[C@H](C)NC(=O)CN)C(=O)N[C@H](C(=O)N[C@@H](CCCNC(=N)N)C(=O)N[C@@H](CCCNC(=N)N)C(=O)N[C@@H](Cc1ccc(O)cc1)C(=O)O)C(C)C
Description: as §1, §2, §3

[7] = substrate: CC(C)[C@H](NC(=O)[C@H](CCCNC(=N)N)NC(=O)[C@H](CO)NC(=O)CN)C(=O)N[C@@H](CO)C(=O)N[C@@H](CCCNC(=N)N)C(=O)N[C@@H](CCC(=O)O)C(=O)N[C@@H](CC(=O)O)C(=O)O
Description: as §1, §2, §3

[8] = substrate: CC(C)[C@H](NC(=O)[C@H](CS)NC(=O)CN)C(=O)N[C@@H](CCC(N)=O)C(=O)N[C@@H](CS)C(=O)N[C@@H](CCCCN)C(=O)N[C@@H](CC(=O)O)C(=O)N[C@@H](CCCCN)C(=O)O
Description: as §1, §2, §3

[9] = substrate: CC[C@H](C)[C@H](NC(=O)CNC(=O)[C@H](CCCNC(=N)N)NC(=O)[C@@H](NC(=O)[C@@H](NC(=O)[C@H](CC(C)C)NC(=O)[C@H](C)NC(=O)CN)C(C)C)[C@@H](C)CC)C(=O)O
Description: as §1, §2, §3

[10] = substrate: CC[C@H](C)[C@H](NC(=O)[C@@H](NC(=O)[C@H](CC(C)C)NC(=O)[C@H](CC(C)C)NC(=O)CN)[C@@H](C)O)C(=O)N[C@@H](CC(C)C)C(=O)N[C@@H](CCCCN)C(=O)N[C@@H](CCCCN)C(=O)O
Description: as §1, §2, §3

[11] = substrate: CC[C@H](C)[C@H](NC(=O)[C@H](CCCCN)NC(=O)[C@H](CO)NC(=O)[C@H](CC(C)C)NC(=O)[C@@H](NC(=O)[C@H](CCCCN)NC(=O)CN)C(C)C)C(=O)N[C@@H](Cc1ccccc1)C(=O)O
Description: as §1, §2, §3

[12] = substrate: CC[C@H](C)[C@H](NC(=O)[C@H](CS)NC(=O)CN)C(=O)N[C@@H](CCCCN)C(=O)N[C@@H](CO)C(=O)N[C@@H](CCCCN)C(=O)NCC(=O)N[C@@H](CCCCN)C(=O)O
Description: as §1, §2, §3

[13] = substrate: CC[C@H](C)[C@H](NC(=O)[C@H](CS)NC(=O)CN)C(=O)N[C@@H](CCCCN)C(=O)N[C@@H](CO)C(=O)N[C@@H](CCCCN)C(=O)N[C@@H](CCC(=O)O)C(=O)N[C@@H](CC(N)=O)C(=O)O
Description: as §1, §2, §3

[14] = substrate: CSCC[C@H](NC(=O)[C@@H](NC(=O)[C@H](CCC(=O)O)NC(=O)CN)[C@@H](C)O)C(=O)N[C@@H](CO)C(=O)N[C@@H](CCCCN)C(=O)N[C@@H](CCCNC(=N)N)C(=O)N[C@@H](CC(C)C)C(=O)O
Description: as §1, §2, §3

[15] = substrate: C[C@H](N)C(=O)N[C@@H](CO)C(=O)N[C@@H](CC(N)=O)C(=O)N[C@@H](CCCCN)C(=O)N[C@@H](CO)C(=O)N[C@@H](CCCCN)C(=O)N1CCC[C@H]1C(=O)N[C@@H](CCCCN)C(=O)O
Description: as §1, §2, §3

[16] = substrate: C[C@H](NC(=O)[C@@H](NC(=O)[C@H](CCCCN)NC(=O)[C@H](CO)NC(=O)[C@H](Cc1ccccc1)NC(=O)[C@H](CCC(N)=O)NC(=O)[C@H](C)NC(=O)CN)[C@@H](C)O)C(=O)O
Description: as §1, §2, §3

[17] = substrate: C[C@H](NC(=O)[C@@H]1CCCN1C(=O)CNC(=O)[C@H](CO)NC(=O)[C@H](CCC(N)=O)NC(=O)[C@H](CCCCN)NC(=O)[C@H](C)NC(=O)CN)C(=O)O
Description: as §1, §2, §3

[18] = substrate: C[C@H](NC(=O)[C@H](CC(N)=O)NC(=O)CN)C(=O)N[C@@H](CCC(N)=O)C(=O)N[C@@H](CCC(=O)O)C(=O)N[C@@H](CCCNC(=N)N)C(=O)N1CCC[C@H]1C(=O)N[C@@H](CO)C(=O)O
Description: as §1, §2, §3

[19] = substrate: C[C@H](NC(=O)[C@H](CCCCN)NC(=O)[C@H](CO)NC(=O)[C@H](CO)NC(=O)[C@H](CCC(N)=O)NC(=O)[C@H](CO)NC(=O)CN)C(=O)N1CCC[C@H]1C(=O)O
Description: as §1, §2, §3

[20] = substrate: C[C@H](NC(=O)[C@H](CCCCN)NC(=O)[C@H](CO)NC(=O)[C@H](CO)NC(=O)[C@H](CCCCN)NC(=O)[C@H](CCCNC(=N)N)NC(=O)CN)C(=O)N[C@@H](CCCCN)C(=O)O
Description: as §1, §2, §3

[21] = substrate: N=C(N)NCCC[C@H](NC(=O)[C@H](CCCNC(=N)N)NC(=O)[C@H](CCCCN)NC(=O)[C@H](CO)NC(=O)[C@H](Cc1ccccc1)NC(=O)[C@H](Cc1ccccc1)NC(=O)[C@H](CS)NC(=O)CN)C(=O)O
Description: as §1, §2, §3

[22] = substrate: N=C(N)NCCC[C@H](NC(=O)[C@H](CS)NC(=O)CN)C(=O)N[C@@H](CCC(N)=O)C(=O)N[C@@H](CO)C(=O)N[C@@H](CO)C(=O)N[C@@H](CCC(=O)O)C(=O)N[C@@H](CCC(=O)O)C(=O)O
Description: as §1, §2, §3

[23] = substrate: N=C(N)NCCC[C@H](NC(=O)[C@H](Cc1ccc(O)cc1)NC(=O)[C@H](Cc1c[nH]cn1)NC(=O)[C@H](CCCNC(=N)N)NC(=O)[C@H](CO)NC(=O)[C@H](CCC(=O)O)NC(=O)[C@H](CCCNC(=N)N)NC(=O)CN)C(=O)O
Description: as §1, §2, §3

[24] = substrate: NCCCC[C@H](NC(=O)[C@@H]1CCCN1C(=O)[C@H](CCCCN)NC(=O)[C@H](CO)NC(=O)[C@H](CCCCN)NC(=O)[C@H](CC(N)=O)NC(=O)[C@H](CO)NC(=O)CN)C(=O)O
Description: as §1, §2, §3

B1: full length NMT1 protein (Homo sapiens) (protein)
chain: MADESETAVKPPAPPLPQMMEGNGNGHEHCSDCENEEDNSYNRGGLSPANDTGAKKKKKKQKKKKEKGSETDSAQDQPVKMNSLPAERIQEIQKAIELFSVGQGPAKTMEEASKRSYQFWDTQPVPKLGEVVNTHGPVEPDKDNIRQEPYTLPQGFTWDALDLGDRGVLKELYTLLNENYVEDDDNMFRFDYSPEFLLWALRPPGWLPQWHCGVRVVSSRKLVGFISAIPANIHIYDTEKKMVEINFLCVHKKLRSKRVAPVLIREITRRVHLEGIFQAVYTAGVVLPKPVGTCRYWHRSLNPRKLIEVKFSHLSRNMTMQRTMKLYRLPETPKTAGLRPMETKDIPVVHQLLTRYLKQFHLTPVMSQEEVEHWFYPQENIIDTFVVENANGEVTDFLSFYTLPSTIMNHPTHKSLKAAYSFYNVHTQTPLLDLMSDALVLAKMKGFDVFNALDLMENKTFLEKLKFGIGDGNLQYYLYNWKCPSMGAEKVGLVLQ
notes: Km and Vmax catalyzed by full length NMT1 protein were calculated
Question: How did the Vmax [1] turn out when B1 was run?
Answer: 1.8 µM/min

Question: What about the Km [2] of the same protein?
Answer: 10.3 µM

Question: What about the Vmax [2] of the same protein?
Answer: 21.9 µM/min

Question: What about the Km [3] of the same protein?
Answer: 0.8 µM

Question: And the Vmax [3]?
Answer: 1.7 µM/min

Question: And the Km [4]?
Answer: 15.7 µM

Question: What about the Vmax [4] of the same protein?
Answer: 3.4 µM/min

Question: What about the Km [5] of the same protein?
Answer: 16.7 µM

Question: And the Vmax [5]?
Answer: 61.1 µM/min

Question: What about the Km [6] of the same protein?
Answer: 16.4 µM

Question: And the Vmax [6]?
Answer: 2.8 µM/min

Question: What about the Km [7] of the same protein?
Answer: 79.2 µM

Question: What about the Vmax [7] of the same protein?
Answer: 12.9 µM/min

Question: And the Km [8]?
Answer: 5.2 µM

Question: What about the Vmax [8] of the same protein?
Answer: 54.9 µM/min

Question: What about the Km [9] of the same protein?
Answer: 0.5 µM

Question: And the Vmax [9]?
Answer: 1.2 µM/min

Question: And the Km [10]?
Answer: 0.4 µM

Question: What about the Vmax [10] of the same protein?
Answer: 1.2 µM/min

Question: And the Km [11]?
Answer: 4.4 µM

Question: And the Vmax [11]?
Answer: 13.6 µM/min

Question: What about the Km [12] of the same protein?
Answer: 22.5 µM

Question: And the Vmax [12]?
Answer: 64.7 µM/min

Question: What about the Km [13] of the same protein?
Answer: 14.4 µM

Question: What about the Vmax [13] of the same protein?
Answer: 61 µM/min

Question: And the Km [14]?
Answer: 13.0 µM

Question: What about the Vmax [14] of the same protein?
Answer: 5.3 µM/min

Question: What about the Vmax [15] of the same protein?
Answer: 1 µM/min

Question: What about the Km [16] of the same protein?
Answer: 38.4 µM

Question: And the Vmax [16]?
Answer: 6.4 µM/min

Question: And the Km [17]?
Answer: 2.0 µM

Question: What about the Vmax [17] of the same protein?
Answer: 1.6 µM/min

Question: And the Km [18]?
Answer: 1.4 µM

Question: What about the Vmax [18] of the same protein?
Answer: 2 µM/min

Question: What about the Km [19] of the same protein?
Answer: 11.7 µM

Question: And the Vmax [19]?
Answer: 6.6 µM/min

Question: And the Km [20]?
Answer: 1.2 µM

Question: What about the Vmax [20] of the same protein?
Answer: 1.8 µM/min

Question: What about the Km [21] of the same protein?
Answer: 13.6 µM

Question: And the Vmax [21]?
Answer: 60.8 µM/min

Question: What about the Km [22] of the same protein?
Answer: 15.7 µM

Question: And the Vmax [22]?
Answer: 64.4 µM/min

Question: And the Vmax [23]?
Answer: 2 µM/min

Question: What about the Km [24] of the same protein?
Answer: 14.3 µM

Question: What about the Vmax [24] of the same protein?
Answer: 25.8 µM/min
